Measured values taken from PMC10929410.

B1: native FlaB (flagellin type B, glycosylated) of Pseudomonas aeruginosa strain PAO1 (natural protein)
chain: MALTVNTNIASLNTQRNLNASSNDLNTSLQRLTTGYRINSAKDDAAGLQISNRLSNQISGLNVATRNANDGISLAQTAEGALQQSTNILQRIRDLALQSANGSNSDADRAALQKEVAAQQAELTRISDTTTFGGRKLLDGSFGTTSFQVGSNAYETIDISLQNASASAIGSYQVGSNGAGTVASVAGTATASGIASGTVNLVGGGQVKNIAIAAGDSAKAIAEKMDGAIPNLSARARTVFTADVSGVTGGSLNFDVTVGSNTVSLAGVTSTQDLADQLNSNSSKLGITASINDKGVLTITSATGENVKFGAQTGTATAGQVAVKVQGSDGKFEAAAKNVVAAGTAATTTIVTGYVQLNSPTAYSVSGTGTQASQVFGNASAAQKSSVASVDISTADGAQNAIAVVDNALAAIDAQRADLGAVQNRFKNTIDNLTNISENATNARSRIKDTDFAAETAALSKNQVLQQAGTAILAQANQLPQAVLSLLR
modifications: simple O-glycan without rhamnose, attached via deoxyhexosamine
B2: recombinant FlaB (non-glycosylated) (natural protein)
chain: B1 chain
B3: deglycosylated native FlaB (natural protein)
chain: B1 chain
modifications: treated with trifluoromethanesulfonic acid to remove the O-glycans

Target: human Toll-like receptor 5 on HEK-Blue-hTLR5 reporter cells (human) (UniProt O60602)
UniProt O60602, sequence (O60602 21-858): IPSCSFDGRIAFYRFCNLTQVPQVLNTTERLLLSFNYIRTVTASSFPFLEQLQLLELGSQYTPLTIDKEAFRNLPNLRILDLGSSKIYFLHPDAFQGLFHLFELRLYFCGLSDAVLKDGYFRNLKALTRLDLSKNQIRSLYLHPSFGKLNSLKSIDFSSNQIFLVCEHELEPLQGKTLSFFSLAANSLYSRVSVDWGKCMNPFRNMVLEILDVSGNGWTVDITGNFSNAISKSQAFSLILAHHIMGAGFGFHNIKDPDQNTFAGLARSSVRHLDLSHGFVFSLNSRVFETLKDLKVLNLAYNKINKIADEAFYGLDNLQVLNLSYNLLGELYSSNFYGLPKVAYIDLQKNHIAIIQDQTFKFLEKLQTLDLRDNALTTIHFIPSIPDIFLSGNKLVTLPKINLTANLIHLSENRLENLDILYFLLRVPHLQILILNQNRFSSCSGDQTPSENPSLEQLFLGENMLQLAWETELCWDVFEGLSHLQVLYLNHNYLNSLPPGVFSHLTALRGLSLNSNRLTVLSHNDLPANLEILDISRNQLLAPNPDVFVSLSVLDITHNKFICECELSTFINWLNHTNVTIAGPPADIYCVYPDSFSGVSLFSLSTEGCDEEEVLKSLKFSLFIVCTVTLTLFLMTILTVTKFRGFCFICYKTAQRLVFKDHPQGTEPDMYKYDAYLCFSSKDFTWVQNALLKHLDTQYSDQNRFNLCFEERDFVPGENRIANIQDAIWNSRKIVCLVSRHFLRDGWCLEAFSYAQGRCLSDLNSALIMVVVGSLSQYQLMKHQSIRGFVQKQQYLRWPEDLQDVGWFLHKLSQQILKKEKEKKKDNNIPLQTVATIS

| Molecule | EC50 of TLR5 activation (SEAP, OD 620 nm) in HEK-Blue-hTLR5 reporter cells, 10 pg/mL to 10 µg/mL, 24 h | EC50 of TLR5 activation (SEAP, OD 620 nm) in HEK-Blue-hTLR5 reporter cells, 10 pg/mL to 10 µg/mL, 24 h; the sentence prints the label dnFlaA, taken as dnFlaB from the context of Fig. 4D [ng/mL] |
| --- | --- | --- |
| deglycosylated native FlaA (from UniProt P21184 1-394) (natural protein) | 292 ng/mL |  |
| native FlaA (flagellin type A, glycosylated) of Pseudomonas aeruginosa strain PAK (from UniProt P21184 1-394) (natural protein) | 2.1 ng/mL |  |
| recombinant FlaA (non-glycosylated) (from UniProt P21184 1-394) (natural protein) | 41.5 ng/mL |  |
| B1 | 44.4 ng/mL |  |
| B2 | 104 |  |
| B3 |  | 442 |
